First the molecules themselves.
B1: chymase C22S/P38Q/K40A/F41R/V138I/F173L/D175R/A190S/V213A/S218L/A226R (enzyme)
chain: IIGGTESKPHSRPYMAYLEIVTSNGQSARCGGFLIRRNFVLTAAHCAGRSITVTLGAHNITEEEDTWQKLEVIKQFRHPKYNTSTLHHDIMLLKLKEKASLTLAVGTLPFPSQFNFVPPGRMCRIAGWGRTGVLKPGSDTLQEVKLRLMDPQACSHLRRFDHNLQLCVGNPRKTKSSFKGDSGGPLLCAGVAQGIASYGRLDAKPPRVFTRISHYRPWINQILQAN
B2: chymase C22S/P38Q/K40M/F41R/L99W/V138I/F173M/D175H/A190S/V213A/S218T/A226R (enzyme)
chain: IIGGTESKPHSRPYMAYLEIVTSNGQSMRCGGFLIRRNFVLTAAHCAGRSITVTLGAHNITEEEDTWQKLEVIKQFRHPKYNTSTWHHDIMLLKLKEKASLTLAVGTLPFPSQFNFVPPGRMCRIAGWGRTGVLKPGSDTLQEVKLRLMDPQACSHMRHFDHNLQLCVGNPRKTKSSFKGDSGGPLLCAGVAQGIASYGRTDAKPPRVFTRISHYRPWINQILQAN
B3: chymase C22S/P38Q/K40V/F41R/V138I/F173L/D175N/A190S/V213A/S218V/A226R (enzyme)
chain: IIGGTESKPHSRPYMAYLEIVTSNGQSVRCGGFLIRRNFVLTAAHCAGRSITVTLGAHNITEEEDTWQKLEVIKQFRHPKYNTSTLHHDIMLLKLKEKASLTLAVGTLPFPSQFNFVPPGRMCRIAGWGRTGVLKPGSDTLQEVKLRLMDPQACSHLRNFDHNLQLCVGNPRKTKSSFKGDSGGPLLCAGVAQGIASYGRVDAKPPRVFTRISHYRPWINQILQAN
B4: chymase C22S/P38Q/K40A/F41R/L99H/V138I/F173M/D175T/A190S/V213A/S218I/A226R (enzyme)
chain: IIGGTESKPHSRPYMAYLEIVTSNGQSARCGGFLIRRNFVLTAAHCAGRSITVTLGAHNITEEEDTWQKLEVIKQFRHPKYNTSTHHHDIMLLKLKEKASLTLAVGTLPFPSQFNFVPPGRMCRIAGWGRTGVLKPGSDTLQEVKLRLMDPQACSHMRTFDHNLQLCVGNPRKTKSSFKGDSGGPLLCAGVAQGIASYGRIDAKPPRVFTRISHYRPWINQILQAN
B5: chymase C22S/P38Q/K40V/F41R/L99H/V138I/F173M/D175N/A190S/V213A/S218T/A226R (enzyme)
chain: IIGGTESKPHSRPYMAYLEIVTSNGQSVRCGGFLIRRNFVLTAAHCAGRSITVTLGAHNITEEEDTWQKLEVIKQFRHPKYNTSTHHHDIMLLKLKEKASLTLAVGTLPFPSQFNFVPPGRMCRIAGWGRTGVLKPGSDTLQEVKLRLMDPQACSHMRNFDHNLQLCVGNPRKTKSSFKGDSGGPLLCAGVAQGIASYGRTDAKPPRVFTRISHYRPWINQILQAN
B6: chymase C22S/P38Q/K40L/F41R/L99F/V138I/F173L/D175N/A190S/V213A/A226R (enzyme)
chain: IIGGTESKPHSRPYMAYLEIVTSNGQSLRCGGFLIRRNFVLTAAHCAGRSITVTLGAHNITEEEDTWQKLEVIKQFRHPKYNTSTFHHDIMLLKLKEKASLTLAVGTLPFPSQFNFVPPGRMCRIAGWGRTGVLKPGSDTLQEVKLRLMDPQACSHLRNFDHNLQLCVGNPRKTKSSFKGDSGGPLLCAGVAQGIASYGRSDAKPPRVFTRISHYRPWINQILQAN
B7: chymase C22S/P38Q/K40M/F41H/V138I/D175S/A190S/V213A/A226R (enzyme)
chain: IIGGTESKPHSRPYMAYLEIVTSNGQSMHCGGFLIRRNFVLTAAHCAGRSITVTLGAHNITEEEDTWQKLEVIKQFRHPKYNTSTLHHDIMLLKLKEKASLTLAVGTLPFPSQFNFVPPGRMCRIAGWGRTGVLKPGSDTLQEVKLRLMDPQACSHFRSFDHNLQLCVGNPRKTKSSFKGDSGGPLLCAGVAQGIASYGRSDAKPPRVFTRISHYRPWINQILQAN
B8: chymase C22S/P38Q/K40M/F41R/L99Y/V138I/F173L/D175S/A190S/V213A/S218T/A226R (enzyme)
chain: IIGGTESKPHSRPYMAYLEIVTSNGQSMRCGGFLIRRNFVLTAAHCAGRSITVTLGAHNITEEEDTWQKLEVIKQFRHPKYNTSTYHHDIMLLKLKEKASLTLAVGTLPFPSQFNFVPPGRMCRIAGWGRTGVLKPGSDTLQEVKLRLMDPQACSHLRSFDHNLQLCVGNPRKTKSSFKGDSGGPLLCAGVAQGIASYGRTDAKPPRVFTRISHYRPWINQILQAN
B9: chymase C22S/P38Q/K40A/F41R/L99H/V138I/F173Y/D175N/A190S/V213A/S218I/A226R (enzyme)
chain: IIGGTESKPHSRPYMAYLEIVTSNGQSARCGGFLIRRNFVLTAAHCAGRSITVTLGAHNITEEEDTWQKLEVIKQFRHPKYNTSTHHHDIMLLKLKEKASLTLAVGTLPFPSQFNFVPPGRMCRIAGWGRTGVLKPGSDTLQEVKLRLMDPQACSHYRNFDHNLQLCVGNPRKTKSSFKGDSGGPLLCAGVAQGIASYGRIDAKPPRVFTRISHYRPWINQILQAN
B10: chymase C22S/P38Q/K40V/F41R/V138I/F173S/D175N/A190S/V213A/S218I/A226R (enzyme)
chain: IIGGTESKPHSRPYMAYLEIVTSNGQSVRCGGFLIRRNFVLTAAHCAGRSITVTLGAHNITEEEDTWQKLEVIKQFRHPKYNTSTLHHDIMLLKLKEKASLTLAVGTLPFPSQFNFVPPGRMCRIAGWGRTGVLKPGSDTLQEVKLRLMDPQACSHSRNFDHNLQLCVGNPRKTKSSFKGDSGGPLLCAGVAQGIASYGRIDAKPPRVFTRISHYRPWINQILQAN
B11: chymase C22S/P38Q/K40M/F41R/L99Y/V138I/F173L/D175Q/A190S/V213A/S218T/A226R (enzyme)
chain: IIGGTESKPHSRPYMAYLEIVTSNGQSMRCGGFLIRRNFVLTAAHCAGRSITVTLGAHNITEEEDTWQKLEVIKQFRHPKYNTSTYHHDIMLLKLKEKASLTLAVGTLPFPSQFNFVPPGRMCRIAGWGRTGVLKPGSDTLQEVKLRLMDPQACSHLRQFDHNLQLCVGNPRKTKSSFKGDSGGPLLCAGVAQGIASYGRTDAKPPRVFTRISHYRPWINQILQAN
B12: chymase C22S/P38Q/K40M/F41H/L99H/V138I/D175S/A190S/V213A/S218V/A226R (enzyme)
chain: IIGGTESKPHSRPYMAYLEIVTSNGQSMHCGGFLIRRNFVLTAAHCAGRSITVTLGAHNITEEEDTWQKLEVIKQFRHPKYNTSTHHHDIMLLKLKEKASLTLAVGTLPFPSQFNFVPPGRMCRIAGWGRTGVLKPGSDTLQEVKLRLMDPQACSHFRSFDHNLQLCVGNPRKTKSSFKGDSGGPLLCAGVAQGIASYGRVDAKPPRVFTRISHYRPWINQILQAN
B13: chymase C22S/P38Q/K40L/F41R/L99M/V138I/F173L/D175R/A190S/V213A/S218V/A226R (enzyme)
chain: IIGGTESKPHSRPYMAYLEIVTSNGQSLRCGGFLIRRNFVLTAAHCAGRSITVTLGAHNITEEEDTWQKLEVIKQFRHPKYNTSTMHHDIMLLKLKEKASLTLAVGTLPFPSQFNFVPPGRMCRIAGWGRTGVLKPGSDTLQEVKLRLMDPQACSHLRRFDHNLQLCVGNPRKTKSSFKGDSGGPLLCAGVAQGIASYGRVDAKPPRVFTRISHYRPWINQILQAN
B14: chymase C22S/P38Q/K40A/F41Q/V138I/F173S/D175W/A190S/V213A/S218V/A226R (enzyme)
chain: IIGGTESKPHSRPYMAYLEIVTSNGQSAQCGGFLIRRNFVLTAAHCAGRSITVTLGAHNITEEEDTWQKLEVIKQFRHPKYNTSTLHHDIMLLKLKEKASLTLAVGTLPFPSQFNFVPPGRMCRIAGWGRTGVLKPGSDTLQEVKLRLMDPQACSHSRWFDHNLQLCVGNPRKTKSSFKGDSGGPLLCAGVAQGIASYGRVDAKPPRVFTRISHYRPWINQILQAN
B15: chymase C22S/P38Q/K40L/F41R/V138I/F173L/D175R/A190S/V213A/S218V/A226R (enzyme)
chain: IIGGTESKPHSRPYMAYLEIVTSNGQSLRCGGFLIRRNFVLTAAHCAGRSITVTLGAHNITEEEDTWQKLEVIKQFRHPKYNTSTLHHDIMLLKLKEKASLTLAVGTLPFPSQFNFVPPGRMCRIAGWGRTGVLKPGSDTLQEVKLRLMDPQACSHLRRFDHNLQLCVGNPRKTKSSFKGDSGGPLLCAGVAQGIASYGRVDAKPPRVFTRISHYRPWINQILQAN

Sequence of Human Factor B (human) (P00751 26-764 limits assumed): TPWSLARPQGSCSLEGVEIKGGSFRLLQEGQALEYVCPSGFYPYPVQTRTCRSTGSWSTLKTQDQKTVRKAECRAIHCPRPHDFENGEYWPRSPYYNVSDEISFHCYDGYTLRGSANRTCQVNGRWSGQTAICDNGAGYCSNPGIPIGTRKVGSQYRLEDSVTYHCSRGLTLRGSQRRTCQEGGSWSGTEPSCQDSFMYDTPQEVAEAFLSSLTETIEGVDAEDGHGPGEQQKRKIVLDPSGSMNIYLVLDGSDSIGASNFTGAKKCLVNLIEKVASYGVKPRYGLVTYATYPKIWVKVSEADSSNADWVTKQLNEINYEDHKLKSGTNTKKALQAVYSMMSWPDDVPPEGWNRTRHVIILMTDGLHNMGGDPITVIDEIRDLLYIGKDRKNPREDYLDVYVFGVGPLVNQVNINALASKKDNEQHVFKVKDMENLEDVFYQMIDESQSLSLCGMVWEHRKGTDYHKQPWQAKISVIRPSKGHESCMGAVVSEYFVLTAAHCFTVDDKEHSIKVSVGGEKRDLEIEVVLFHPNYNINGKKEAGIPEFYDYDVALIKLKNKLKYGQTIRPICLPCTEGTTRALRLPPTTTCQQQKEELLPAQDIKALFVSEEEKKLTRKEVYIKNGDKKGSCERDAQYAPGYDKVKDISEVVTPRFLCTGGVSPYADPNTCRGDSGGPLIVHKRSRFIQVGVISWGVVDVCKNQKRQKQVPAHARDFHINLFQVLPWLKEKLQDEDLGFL

The assay addresses Human Factor B (human) (UniProt P00751). The experiment in a line: cell-based or functional assay.
B1: the fB Cleavage EC50 worked out at 283 nM.
The result for B2 reads 414 nM.
The result for B3 reads 279 nM.
B4 gave a fB Cleavage EC50 of 882 nM.
Molecule B5 displayed a fB Cleavage EC50 of 639 nM.
The result for B6 reads 631 nM; that for B7, 1060 nM.
The result for B8 reads 1230 nM; that for B9, 92.9 nM.
As to B10, the fB Cleavage EC50 stood at 717 nM.
Molecule B11 gave a fB Cleavage EC50 of 1650 nM.
The result for B12 reads 277 nM; that for B13, 213 nM; that for B14, 2190 nM.
The result for B15 reads 113 nM.

Source of the values: patent US20240117334A1, “FACTOR B PROTEASES” (Vertex Pharmaceuticals Incorporated, priority 2021, published 2024).
